From PMC5588873 (Cell reports, 2017)

Target: TNRC6A (human (endogenous in HeLa), UniProt Q8NDV7 1-1962)
Test: affinity purification with mass spectrometry

TNRC6A, sequence (Q8NDV7 whole entry): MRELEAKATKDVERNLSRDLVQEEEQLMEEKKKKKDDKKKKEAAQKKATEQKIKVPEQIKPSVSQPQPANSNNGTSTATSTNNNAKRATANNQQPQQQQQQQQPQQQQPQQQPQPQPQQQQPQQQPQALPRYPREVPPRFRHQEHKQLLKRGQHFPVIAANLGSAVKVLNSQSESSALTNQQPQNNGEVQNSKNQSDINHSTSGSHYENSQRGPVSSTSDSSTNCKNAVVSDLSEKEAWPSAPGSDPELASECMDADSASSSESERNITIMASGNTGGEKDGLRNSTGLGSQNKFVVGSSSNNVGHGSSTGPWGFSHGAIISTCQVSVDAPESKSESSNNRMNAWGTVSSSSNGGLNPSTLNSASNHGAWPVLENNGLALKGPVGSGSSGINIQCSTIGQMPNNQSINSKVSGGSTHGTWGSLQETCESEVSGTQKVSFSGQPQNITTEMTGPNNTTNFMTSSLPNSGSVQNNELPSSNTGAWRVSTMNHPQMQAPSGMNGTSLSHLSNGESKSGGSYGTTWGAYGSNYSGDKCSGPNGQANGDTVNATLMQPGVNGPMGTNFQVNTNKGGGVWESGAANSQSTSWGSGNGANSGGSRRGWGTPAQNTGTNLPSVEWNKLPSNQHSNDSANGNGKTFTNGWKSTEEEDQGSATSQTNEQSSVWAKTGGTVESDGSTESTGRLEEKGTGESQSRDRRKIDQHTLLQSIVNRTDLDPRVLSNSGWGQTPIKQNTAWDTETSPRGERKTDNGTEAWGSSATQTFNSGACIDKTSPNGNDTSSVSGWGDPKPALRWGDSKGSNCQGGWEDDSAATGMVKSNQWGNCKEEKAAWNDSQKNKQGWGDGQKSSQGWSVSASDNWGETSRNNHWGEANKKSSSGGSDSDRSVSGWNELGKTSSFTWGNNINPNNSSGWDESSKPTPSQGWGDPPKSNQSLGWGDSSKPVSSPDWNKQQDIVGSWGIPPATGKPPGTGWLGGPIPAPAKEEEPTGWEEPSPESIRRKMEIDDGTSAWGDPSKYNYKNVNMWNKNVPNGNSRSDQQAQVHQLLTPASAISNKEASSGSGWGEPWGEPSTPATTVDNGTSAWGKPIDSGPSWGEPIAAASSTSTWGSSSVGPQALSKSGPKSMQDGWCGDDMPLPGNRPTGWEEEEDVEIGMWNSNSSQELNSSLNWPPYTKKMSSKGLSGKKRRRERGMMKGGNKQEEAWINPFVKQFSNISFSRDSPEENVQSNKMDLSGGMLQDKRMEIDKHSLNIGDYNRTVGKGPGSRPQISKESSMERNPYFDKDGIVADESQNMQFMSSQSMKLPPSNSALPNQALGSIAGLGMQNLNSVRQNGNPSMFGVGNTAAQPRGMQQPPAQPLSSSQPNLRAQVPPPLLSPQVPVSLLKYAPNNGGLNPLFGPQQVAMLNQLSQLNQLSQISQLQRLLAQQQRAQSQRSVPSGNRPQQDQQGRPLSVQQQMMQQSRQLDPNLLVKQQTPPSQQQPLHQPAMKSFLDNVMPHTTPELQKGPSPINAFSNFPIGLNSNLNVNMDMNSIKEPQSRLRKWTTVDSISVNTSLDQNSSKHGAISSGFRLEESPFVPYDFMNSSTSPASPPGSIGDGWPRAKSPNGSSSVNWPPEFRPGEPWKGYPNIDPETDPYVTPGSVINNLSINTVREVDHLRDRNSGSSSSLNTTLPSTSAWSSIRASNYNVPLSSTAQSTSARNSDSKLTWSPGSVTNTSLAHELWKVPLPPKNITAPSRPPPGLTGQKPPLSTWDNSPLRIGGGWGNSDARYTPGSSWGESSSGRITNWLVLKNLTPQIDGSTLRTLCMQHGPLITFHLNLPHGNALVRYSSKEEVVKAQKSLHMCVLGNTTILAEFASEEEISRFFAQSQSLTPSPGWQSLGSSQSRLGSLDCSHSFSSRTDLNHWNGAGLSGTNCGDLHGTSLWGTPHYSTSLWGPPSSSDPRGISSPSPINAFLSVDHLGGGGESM

Binder | stoichiometry N
TP53BP1 (natural protein, human (endogenous in HeLa), UniProt Q12888 1-1972, looked up) MDPTGSQLDSDFSQQDTPCLIIEDSQPESQVLEDDSGSHFSMLSRHLPNLQTHKENPVLDVVSNPEQTAGEERGDGNSGFNEHLKENKVADPVDSSNLDTCGSISQVIEQLPQPNRTSSVLGMSVESAPAVEEEKGEELEQKEKEKEEDTSGNTTHSLGAEDTASSQLGFGVLELSQSQDVEENTVPYEVDKEQLQSVTTNSGYTRLSDVDANTAIKHEEQSNEDIPIAEQSSKDIPVTAQPSKDVHVVKEQNPPPARSEDMPFSPKASVAAMEAKEQLSAQELMESGLQIQKSPEPEVLSTQEDLFDQSNKTVSSDGCSTPSREEGGCSLASTPATTLHLLQLSGQRSLVQDSLSTNSSDLVAPSPDAFRSTPFIVPSSPTEQEGRQDKPMDTSVLSEEGGEPFQKKLQSGEPVELENPPLLPESTVSPQASTPISQSTPVFPPGSLPIPSQPQFSHDIFIPSPSLEEQSNDGKKDGDMHSSSLTVECSKTSEIEPKNSPEDLGLSLTGDSCKLMLSTSEYSQSPKMESLSSHRIDEDGENTQIEDTEPMSPVLNSKFVPAENDSILMNPAQDGEVQLSQNDDKTKGDDTDTRDDISILATGCKGREETVAEDVCIDLTCDSGSQAVPSPATRSEALSSVLDQEEAMEIKEHHPEEGSSGSEVEEIPETPCESQGEELKEENMESVPLHLSLTETQSQGLCLQKEMPKKECSEAMEVETSVISIDSPQKLAILDQELEHKEQEAWEEATSEDSSVVIVDVKEPSPRVDVSCEPLEGVEKCSDSQSWEDIAPEIEPCAENRLDTKEEKSVEYEGDLKSGTAETEPVEQDSSQPSLPLVRADDPLRLDQELQQPQTQEKTSNSLTEDSKMANAKQLSSDAEAQKLGKPSAHASQSFCESSSETPFHFTLPKEGDIIPPLTGATPPLIGHLKLEPKRHSTPIGISNYPESTIATSDVMSESMVETHDPILGSGKGDSGAAPDVDDKLCLRMKLVSPETEASEESLQFNLEKPATGERKNGSTAVAESVASPQKTMSVLSCICEARQENEARSEDPPTTPIRGNLLHFPSSQGEEEKEKLEGDHTIRQSQQPMKPISPVKDPVSPASQKMVIQGPSSPQGEAMVTDVLEDQKEGRSTNKENPSKALIERPSQNNIGIQTMECSLRVPETVSAATQTIKNVCEQGTSTVDQNFGKQDATVQTERGSGEKPVSAPGDDTESLHSQGEEEFDMPQPPHGHVLHRHMRTIREVRTLVTRVITDVYYVDGTEVERKVTEETEEPIVECQECETEVSPSQTGGSSGDLGDISSFSSKASSLHRTSSGTSLSAMHSSGSSGKGAGPLRGKTSGTEPADFALPSSRGGPGKLSPRKGVSQTGTPVCEEDGDAGLGIRQGGKAPVTPRGRGRRGRPPSRTTGTRETAVPGPLGIEDISPNLSPDDKSFSRVVPRVPDSTRRTDVGAGALRRSDSPEIPFQAAAGPSDGLDASSPGNSFVGLRVVAKWSSNGYFYSGKITRDVGAGKYKLLFDDGYECDVLGKDILLCDPIPLDTEVTALSEDEYFSAGVVKGHRKESGELYYSIEKEGQRKWYKRMAVILSLEQGNRLREQYGLGPYEAVTPLTKAADISLDNLVEGKRKRRSNVSSPATPTASSSSSTTPTRKITESPRASMGVLSGKRKLITSEEERSPAKRGRKSATVKPGAVGAGEFVSPCESGDNTGEPSALEEQRGPLPLNKTLFLGYAFLLTMATTSDKLASRSKLPDGPTGSSEEEEEFLEIPPFNKQYTESQLRAGAGYILEDFNEAQCNTAYQCLLIADQHCRTRKYFLCLASGIPCVSHVWVHDSCHANQLQNYRNYLLPAGYSLEEQRILDWQPRENPFQNLKVLLVSDQQQNFLELWSEILMTGGAASVKQHHSSAHNKDIALGVFDVVVTDPSCPASVLKCAEALQLPVVSQEWVIQCLIVGERIGFKQHPKYKHDYVSH | ~1.52 per TNRC6A (=1)
AGO2 (natural protein) not shown | 2.2 per TNRC6A (=1)
